One block for each binder: values may come before it.
Key:
[1] = molecular target: T1, EDDM, full length EDD with Cys2768 to Ala mutation (human, UniProt O95071 1-2799); assay: anti-FLAG M2 immunoprecipitation from HEK 293 cells overexpressing mutant EDD, EDD western blot
T1 construct: Stably overexpressed in HEK 293 cells (FLAG-CIB co-immunoprecipitation) or transfected for reporter assays; also called mutant EDD; ligase-defective EDD mutant
Description: Left, HEK 293 cells overexpressing mutant EDD were transfected with a plasmid encoding Flag-tagged CIB or empty vector (vec). Extracts from these cells were subjected to immunoprecipitation using anti-FLAG Ab M2. Right, nuclear extracts prepared from MCF-7 cells following treatment with DNA damage agents phleomycin (Phleo) or hydroxyurea (HU) were incubated with either GST or GST-CIB fusion protein bound to glutathione-Sepharose beads. Bound proteins from both procedures were analysed by SDS-PAGE and western blotted for EDD and amounts bound are indicated as percentages relative to input.
Stable HEK 293 cells overexpressing EDDM were transfected with pCMVTag2C-CIB or empty vector using Fugene 6 reagent (Roche) for 24 h. Following 6 h incubation in the presence of MG132, cells were harvested and lysates prepared and one mg total protein incubated with anti-FLAG antibody M2 coupled to Sepharose (Sigma Chemical Co., St Louis, USA) for 2 h at 4° C. Beads were recovered by centrifugation and washed extensively in lysis buffer. Western blotting for EDD has been described (Callaghan et al, Oncogene 17, 3479-3491, 1998).

[2] = molecular target: T2, GAL4 DBD-EDDM fusion (full length EDD C2768A mutant bait) (yeast; human, UniProt O95071 1-2799); assay: yeast two-hybrid screen; truncated clone
T2 construct: Bait for the yeast two-hybrid screen of a human placenta cDNA library; also called full length EDDM (C2768A mutant) bait
From the text: (§1) The cDNAs for full length EDD mutant and carboxy domain mutants (EDDM and EDD5M) were screened against a human placenta cDNA library in the pACT2 vector by the yeast two-hybrid method (Matchmaker 2, Clontech, Palo Alto, Calif., USA). Stable transformants of Saccharomyces cerevisiae strain Y190 expressing EDD fusion protein were transformed with the library using the lithium acetate method and 2-3×10⁶ primary transformants selected on his-leu-trp-plates. Following a second round of selection on the same medium, colonies were assayed for β.galactosidase activity using a filter-based assay. Interacting plasmids that were positive for β.galactosidase only in the presence of the EDD bait plasmids were transformed into E. coli DH5α cells for further analysis. Manual sequencing was carried out using ³³P end-labelled primer in conjunction with the fmol Cycle sequencing kit (Promega Corp., Madison, Wis., USA). Sequences were analysed by Blast searches of the Genbank and EMBL databases and predicted proteins analysed for motifs using the ISREC Profile Scan Server (www.isrec.isb-sib.ch).

[3] = molecular target: T2, GAL4 DBD-EDDM fusion (full length EDD …); assay: yeast two-hybrid screen
From the text: as §1, with “Manual sequencing was carried out using ³³P end-labelled primer in conjunction with the fmol Cycle sequencing kit (Promega Corp., Madison, Wis., USA).” left out
Further yeast two-hybrid screening was aimed at identifying other proteins involved in the ubiquitinylation or coactivation functions of EDD. […] The interaction between CIB and full length EDD initially detected in the yeast two-hybrid system (FIG. 10A) was confirmed by pull-down of in vitro translated EDD proteins with GST-CIB (FIG. 10B). […]

EDDF1c (EDD aa 1-419) = molecular target: T3, EDDF1c (EDD aa 1-419) (human, UniProt O95071 1-419); assay: GST-importin α5 pull-down of IVT N-terminal EDD derivatives
T3 construct: In vitro translated, 35S-labelled; Contains neither N-terminal NLS
T3 sequence: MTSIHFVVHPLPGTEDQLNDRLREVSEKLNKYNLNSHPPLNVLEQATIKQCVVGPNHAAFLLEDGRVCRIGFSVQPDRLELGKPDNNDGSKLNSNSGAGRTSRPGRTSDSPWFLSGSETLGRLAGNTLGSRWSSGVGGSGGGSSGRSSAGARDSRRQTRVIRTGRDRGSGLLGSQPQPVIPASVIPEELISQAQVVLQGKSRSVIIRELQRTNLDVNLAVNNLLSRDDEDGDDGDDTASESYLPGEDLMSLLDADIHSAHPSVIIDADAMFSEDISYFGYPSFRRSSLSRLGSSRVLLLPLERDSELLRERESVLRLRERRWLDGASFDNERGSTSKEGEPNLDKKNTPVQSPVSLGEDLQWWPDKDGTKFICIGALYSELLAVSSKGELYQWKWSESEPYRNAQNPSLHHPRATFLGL

[4] = molecular target: T4, EDDF3, carboxy domain of EDD (aa 1877-2799) (human, UniProt O95071 1877-2799); assay: GST-importin α5 pull-down of IVT 35S-EDD fragments
T4 construct: In vitro translated, 35S-labelled; also called carboxy third; carboxy terminal region of EDD
T4 sequence: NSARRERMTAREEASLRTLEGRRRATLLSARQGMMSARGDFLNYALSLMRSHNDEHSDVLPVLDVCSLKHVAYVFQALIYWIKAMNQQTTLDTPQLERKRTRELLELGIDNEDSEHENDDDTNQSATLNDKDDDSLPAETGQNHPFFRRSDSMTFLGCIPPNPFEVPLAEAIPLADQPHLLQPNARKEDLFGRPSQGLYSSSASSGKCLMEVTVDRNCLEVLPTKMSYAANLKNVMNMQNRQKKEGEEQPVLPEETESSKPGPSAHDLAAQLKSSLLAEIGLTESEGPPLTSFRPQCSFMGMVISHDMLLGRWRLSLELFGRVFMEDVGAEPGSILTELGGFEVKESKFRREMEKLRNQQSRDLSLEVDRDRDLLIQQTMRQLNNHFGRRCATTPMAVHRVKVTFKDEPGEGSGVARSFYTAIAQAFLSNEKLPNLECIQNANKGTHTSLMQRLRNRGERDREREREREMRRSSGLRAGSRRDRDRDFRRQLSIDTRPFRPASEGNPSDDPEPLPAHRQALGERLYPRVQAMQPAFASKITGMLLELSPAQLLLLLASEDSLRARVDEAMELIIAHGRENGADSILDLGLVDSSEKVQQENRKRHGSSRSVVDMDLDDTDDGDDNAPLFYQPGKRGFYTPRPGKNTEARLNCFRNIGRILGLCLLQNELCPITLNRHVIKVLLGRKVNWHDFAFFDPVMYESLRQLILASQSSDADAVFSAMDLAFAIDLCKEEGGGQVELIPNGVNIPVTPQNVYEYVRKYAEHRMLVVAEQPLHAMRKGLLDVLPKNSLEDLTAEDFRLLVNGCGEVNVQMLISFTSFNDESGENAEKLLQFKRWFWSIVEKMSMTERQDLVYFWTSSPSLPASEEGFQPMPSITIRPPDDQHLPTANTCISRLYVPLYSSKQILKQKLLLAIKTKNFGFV

[5] = molecular target: T5, EDDF2, central domain of EDD (aa 889-1877) (human, UniProt O95071 889-1877); assay: GST-importin α5 pull-down of IVT 35S-EDD fragments
T5 construct: In vitro translated, 35S-labelled; also called central third; central region of EDD
T5 sequence: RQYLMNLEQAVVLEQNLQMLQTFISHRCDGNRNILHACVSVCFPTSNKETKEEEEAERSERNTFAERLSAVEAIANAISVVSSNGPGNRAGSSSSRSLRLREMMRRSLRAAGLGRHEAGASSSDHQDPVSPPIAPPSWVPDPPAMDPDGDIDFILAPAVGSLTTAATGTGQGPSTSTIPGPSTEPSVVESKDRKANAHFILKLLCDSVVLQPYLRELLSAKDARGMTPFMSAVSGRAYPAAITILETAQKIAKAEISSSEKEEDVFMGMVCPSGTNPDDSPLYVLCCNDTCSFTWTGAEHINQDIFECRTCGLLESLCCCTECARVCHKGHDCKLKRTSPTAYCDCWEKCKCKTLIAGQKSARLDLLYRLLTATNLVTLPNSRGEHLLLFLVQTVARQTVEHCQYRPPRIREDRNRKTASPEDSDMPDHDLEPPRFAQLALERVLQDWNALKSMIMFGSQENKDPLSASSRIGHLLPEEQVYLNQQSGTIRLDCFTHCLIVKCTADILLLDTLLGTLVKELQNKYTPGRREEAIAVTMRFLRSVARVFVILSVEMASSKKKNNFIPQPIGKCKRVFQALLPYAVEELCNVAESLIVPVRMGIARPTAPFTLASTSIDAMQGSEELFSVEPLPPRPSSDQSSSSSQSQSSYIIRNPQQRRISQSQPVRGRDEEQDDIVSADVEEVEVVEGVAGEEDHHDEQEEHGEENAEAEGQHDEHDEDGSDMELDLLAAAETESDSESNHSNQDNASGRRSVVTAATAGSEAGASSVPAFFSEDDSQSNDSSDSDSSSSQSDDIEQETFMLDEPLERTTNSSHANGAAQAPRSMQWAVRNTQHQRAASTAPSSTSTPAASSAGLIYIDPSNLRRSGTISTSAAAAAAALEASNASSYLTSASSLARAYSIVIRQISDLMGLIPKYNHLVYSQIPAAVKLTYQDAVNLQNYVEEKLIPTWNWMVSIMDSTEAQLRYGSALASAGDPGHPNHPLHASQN

[6] = molecular target: T6, EDD protein, full length (aa 1-2799) (human, UniProt O95071 1-2799, EDD is phosphorylated in cells; the residue involved has not yet been identified); assay: GST pull-down from MCF-7 nuclear extracts, EDD western blot
T6 construct: also called in vitro translated 35S-labelled EDD; endogenous EDD
Description: For GST fusion protein pull-down of endogenous or recombinant EDD from cell lysates, 0.5 to 1 mg total protein was incubated with 5 μg GST or GST fusion protein bound to glutathione beads for 1-2 h at 4° C. Beads were washed extensively in 1% Triton X-100 lysis buffer and bound proteins resolved by SDS-PAGE and detected by immunoblotting with EDD antisera (Callaghan et al, Oncogene 17, 3479-3491, 1998). For immunoprecipitation, 10 μl importin α5 antisera (Peter Palese, Mount Sinai School of Medicine) was incubated with 0.5 to 1 mg cell lysate (4° C. for 1 h). Antibody conjugates were captured on protein A sepharose beads (4° C. for 1 h) and washed extensively in lysis buffer. Bound proteins were resolved by SDS-PAGE followed by immunoblotting with EDD antisera.
(§2) To determine the requirement for the chk2 FHA domain in this interaction, the binding between EDD and GSTchk2-N and two mutants was assessed. The R117A mutant contains a substitution within the FHA domain and involves a residue directly required for phosphothreonine binding.

[7] = molecular target: T7, EDDF5, central plus C-terminal domains of EDD (aa 889-2799) (human, UniProt O95071 889-2799, binding suggested to be mediated by a phosphorylated threonine residue; residue not identified); assay: GST pull-down of IVT 35S-EDDF5
T7 construct: In vitro translated, 35S-labelled; also called carboxyl two-thirds of EDD
Description: as §2

binding result [1]: binds
B1: FLAG-tagged CIB (full-length CIB in pCMVTag2C) (other, not shown: small tags and cut ends)
chain: MGGSGSRLSKELLAEYQDLTFLTKQEILLAHRRFCELLPQEQRTVESSLRAQVPFEQILSLPELKANPFKERICRVFSTSPAKDSLSFEDFLDLLSVFSDTATPDIKSHYAFRIFDFDDDGTLNREDLSRLVNCLTGEGEDTRLSASEMKQLIDNILEESDIDRDGTINLSEFQHVISRSPDFASSFKIVL
notes: Expressed in HEK 293 cells overexpressing EDDM

binding result [2]: binds
B2: GAL4 AD-importin α5 fusion, aa 229-538 (Impα-C) (other, not shown: large carriers)
chain: TRNAVWALSNLCRGKSPPPEFAKVSPCLNVLSWLLFVSDTDVLADACWALSYLSDGPNDKIQAVIDAGVCRRLVELLMHNDYKVVSPALRAVGNIVTGDDIQTQVILNCSALQSLLHLLSSPKESIKKEACWTISNITAGNRAQIQTVIDANIFPALISILQTAEFRTRKEAAWAITNATSGGSAEQIKYLVELGCIKPLCDLLTVMDSKIVQVALNGLENILRLGEQEAKRNGTGINPYCALIEEAYGLDKIEFLQSHENQEIYQKAFDLIEHYFGTEDEDSSIAPQVDLNQQQYIFQQCEAPMEGFQL
notes: Yeast two-hybrid prey clone; also called amino-truncated importin α5; truncated importin α5 clone

binding result [6]: no binding
binding result [7]: no binding
B5: GSTchk2-N derivative containing an R117A substitution (other)
chain: MSRESDVEAQQSHGSSACSQPHGSVTQSQGSSSQSQGISSSSTSTMPNSSQSSHSSSGTLSSLETVSTQELYSIPEDQEPEDQEPEEPTPAPWARLWALQDGFANLECVNDNYWFGADKSCEYCFDEPLLKRTDKYRTYSKKHFRIFREVGPKNSYIAYIEDHSGNGTFVNTELVGKGKRRPLNNNSEIALSLSRNKVFVFFDLTVDDQSVYPKALRDEYIMSKT
notes: also called GSTchk2-N R117A; R117A mutant; not shown: GST fusion partner at the N end and any vector linker

More lines, now with the values behind:

B3: GAL4 AD-CIB fusion, full length CIB/KIP (other, not shown: large carriers)
chain: MGGSGSRLSKELLAEYQDLTFLTKQEILLAHRRFCELLPQEQRTVESSLRAQVPFEQILSLPELKANPFKERICRVFSTSPAKDSLSFEDFLDLLSVFSDTATPDIKSHYAFRIFDFDDDGTLNREDLSRLVNCLTGEGEDTRLSASEMKQLIDNILEESDIDRDGTINLSEFQHVISRSPDFASSFKIVL
notes: Yeast two-hybrid prey clone from a human placenta cDNA library; also called CIB/KIP full-length clones
binding result [3]: binds

B4: GST fused to amino acids 263-538 of human importin α5 (NPI-1) (other)
chain: LFVSDTDVLADACWALSYLSDGPNDKIQAVIDAGVCRRLVELLMHNDYKVVSPALRAVGNIVTGDDIQTQVILNCSALQSLLHLLSSPKESIKKEACWTISNITAGNRAQIQTVIDANIFPALISILQTAEFRTRKEAAWAITNATSGGSAEQIKYLVELGCIKPLCDLLTVMDSKIVQVALNGLENILRLGEQEAKRNGTGINPYCALIEEAYGLDKIEFLQSHENQEIYQKAFDLIEHYFGTEDEDSSIAPQVDLNQQQYIFQQCEAPMEGFQL
notes: also called GST-importin α5; GST-importin α; not shown: glutathione S-transferase (GST) fusion partner from a bacterial plasmid
binding result (EDDF1c (EDD aa 1-419)): no binding
binding result [4]: no binding
binding result [5]: no binding
